Protein production data for 15 sequences are collected here from a protein production outcome set (Wang et al. 2014).

The data set can be described thus: label from the status in PepcDB records.

In the case of “MTQAFSRVRFIMTQPSHPGNVGSAARAIKTMGFGELVLVAPRFPDMTAQPEAVALASGALDVLERAAVHDTLEEALAPVTLAFALTARVRDLGPPPCDIREAAGLARRHLDDTEAGVVAIVLGTERAGLTNAQIELCHRICHIPANPQYSSLNVAQALQLAAWELRYALLAGTGQPLLPASSAQQANPGAAPADGAAVQALLAHWEQALVAVGFLDPAHPKKLMPRMKHLLTRSALSRDEVDMLRGVCTAMIAPNRPK”, the protein production entry is “failed”.

With “MTQFKLIGFDLDGTLVNSLPDLALSINSALKDVNLPQASENLVMTWIGNGADVLSQRAVDWACKQAEKELTEDEFKYFKRQFGFYYGENLCNISRLYPNVKETLEALKAQGYILAVVTNKPTKHVQPILTAFGIDHLFSEMLGGQSLPEIKPHPAPFYYLCGKFGLYPKQILFVGDSQNDIFAAHSAGCAVVGLTYGYNYNIPIAQSKPDWIFDDFADILKITQ”, the protein production entry was “not failed”.

With “MTQIIKIDPLNPEIDKIKIAADVIRNGGTVAFPTETVYGLGANAFDGNACLKIFQAKNRPVDNPLIVHIADFNQLFEVAKDIPDKVLEIAQIVWPGPLTFVLKKTERVPKEVTAGLDTVAVRMPAHPIALQLIRESGVPIAAPSANLATRPSPTKAEDVIVDLNGRVDVIIDGGHTFFGVESTIINVTVEPPVLLRPGPFTIEELKKLFGEIVIPEFAQGKKEAEIALAPGMKYKHYAPNTRLLLVENRNIFKDVVSLLSKKYKVALLIPKELSKEFEGLQQIILGSDENLYEVARNLFDSFRELDKLNVDLGIMIGFPERGIGFAIMNRARKASGFSIIKAISDVYKYVNI”, the protein production result was “not failed”.

In the case of “MTQLPPAIFLMGPTAAGKTDLAIELTKVLPCELISVDSALVYRGMDIGTAKPSRELLAQFPHRLIDILDPAESYSAADFRTDALAAMADITARGKIPLLVGGTMLYYKALLEGLADMPAADPQVRAELEEEAARLGWQALHDQLAAVDPESAARIHPNDPQRLTRALEVYRVSGLTMTAHRQRQLAQSTEAGASGRSQLPYTVANLAIAPANRQVLHQRIAQRFTQMLEQGFIDEVVALRSRSDLHAGLPSIRAVGYRQVWDHLDGKLTSAEMQERGIIATRQLAKRQFTWLRSWADLQWLDSLDCDNLPRALKYLGTISILSLEHHHHHH”, the protein production entry is listed as “failed”.

For the sequence “MTQLQISLLLTATISLLHLVVATPYEAYPIGKQYPPVARVNESFTFQISNDTYKSSVDKTAQITYNCFDLPSWLSFDSSSRTFSGEPSSDLLSDANTTLYFNVILEGTDSADSTSLNNTYQFVVTNRPSISLSSDFNLLALLKNYGYTNGKNALKLDPNEVFNVTFDRSMFTNEESIVSYYGRSQLYNAPLPNWLFFDSGELKFTGTAPVINSAIAPETSYSFVIIATDIEGFSAVEVEFELVIGAHQLTTSIQNSLIINVTDTGNVSYDLPLNYVYLDDDPISSDKLGSINLLDAPDWVALDNATISGSVPDELLGKNSNPANFSVSIYDTYGDVIYFNFEVVSTTDLFAISSLPNINATRGEWFSYYFLPSQFTDYVNTNVSLEFTNSSQDHDWVKFQSSNLTLAGEVPKNFDKLSLGLKANQGSQSQELYFNIIGMDSKITHSNHSANATSTRSSHHSTSTSSYTSSTYTAKISSTSAAATSSAPAALPAANKTSSHNKKAVAIACGVAIPLGVILVALICFLIFWRRRRENPDDENLPHAISGPDLNNPANKPNQENATPLNNPFDDDASSYDDTSIARRLAALNTLKLDNHSATESDISSVDEKRDSLSGMNTYNDQFQSQSKEELLAKPPVQPPESPFFDPQNRSSSVYMDSEPAVNKSWRYTGNLSPVSDIVRDSYGSQKTVDTEKLFDLEAPEKEKRTSRDVTMSSLDPWNSNISPSPVRKSVTPSPYNVTKHRNRHLQNIQDSQSGKNGITPTTMSTSSSDDFVPVKDGENFCWVHSMEPDRRPSKKRLVDFSNKSNVNVGQVKDIHGRIPEML”, the protein production result was “failed”.

As for “MTQLQQSVIESQPGKLSDYLGHTRRNRFSIRLFSGLIGFILVLAVMATGYWLVFASDRYVSEASVIIRKTDSVTAPSFDLSMLIAGVAGVNRADQLLLREYLLSVDMLKKLDTELDLHAHYSDEHYDLLSRMWLKDMEWFHRHYLSRVSIEYDDYAGVLRINAQAYDPEIARAISNLLVREGERYMNQISHELAETQVSFLTTQVNLAQLRFQQVRQKLLAYQNKKGLLSPQATVESLNTLIAKLEEQRAQLKTQLASLPRTLDRNHPNLVMLRQSLAAIDRQITDEKAKLANPTGKTLNITMEEFQRLEMEVTFAQELYKAALTALEKGRIDATRMLDKVSVLQAPTLPEYPMEPRRIYNTLVTLLFALMLAGILKLLEGIILDHVD”, the protein production result was “failed”.

For “MTQPLRQYREKRDFRATAEPAGAARRPRAAARASEGLSFVIQRHQARRLHYDFRLEIDGVLVSWAVPKGPSRDPSVKRLAVHVEDHPLEYGGFSGDIPKGQYGAGHVDIWDSGVWIPRGDPRQGLRRGKLHFALRGRRLAGDWVLVRMSGEQDQWLLRKEDDEAAVPGDDAERAPATPPPAPEHAPAATPRGRRAAMPHTLAPQLATLVDSPPHGPGWSYEVKYDGYRILAACSAGGVRLVSRGNEDWQARMAPLARALGALKLGRGWLDGEVVVLDERGVADFQLLQNALDGQAEGLVFVAFDLPFWNGEDLRALPLQARQERLEDLLREVPEDAPLMLTQRLPVADDTEGKAAWNEACRLSLEGLICKRLDAPYRSGRSQGWLKLKCRPRQEFVIGGYTEPAGARRHLGALLVGLRQGRQLRYAGRVGTGFGAATLRTLGQRLAALRQDAKPFSGDVPRGRGDAAIHWVSPELVAEVNYAGITRDGLLRQASFAGLRADKPASEVRGEVAARPPAAKAATPSRRAGDGRAEVAGVRISHPDRLAYREPDYTKLQLAEYYAAIGPHILPHLRQRRVALLRCPDGAGTTCFFQKHLSQSLPAGVRRDGGHLVIESLPGLIALVQYGAIEFHTWGADTRHPDTPDRITLDLDPGPGVAWPAIVEGAQMARLLMQEVGLEPFLKTTGGKGLHLVAPLRPTQPWDTVKDFARALARQLAVALPDRFTANMAKARRERRIFVDYLRNGNGATAVAAFSARARDGAPVSMPLSWDALDAGDDLRGARWNIANALEQARRKPDPWADYAASRRTLGSRMQARLPRD”, the protein production result is on record as “failed”.

For the sequence “MTQPNIIMTRVDERLIHGQGQLWVKFLNCNTVIVANDAVSEDKIQQSLMKTVIPSSIAIRFFSIQKVIDIIHKASPAQSIFIVVKDLQDAKLLVEGGVPITEINIGNIHKTDDKVAITQFISLGETDKSAIRCLAHDHHVVFNTKTTPAGNSASDVDILDYI”, the protein production result was “not failed”.

As for “MTQPVPVHYTLRPVSPEAHLFEATVTISHPAKDGQVFFLPAWIPGSYMIREFSKHIVGMAASAGGKPVALRQLEKNRWQAAPAKGALTLRYQVYAFDLSVRGAYLDGERGFFNGTSVFLAAEGYEGEACTVDIHAPEGKAYAEWKVATSLPAEDVKKKTGFGRYRAADYDELIDHPVEMGDFKKVSFKACGVPHEFVVSGRFQGELKRLAEDTRKICECQIKLFGEPAPFDRYVFMLFVGKDIYGGLEHRASTALVANRDDLPAPGAAEIGDGYLKLLGLISHEYFHSWNVKRMKPAAFTPYDLNREGMTRLLWAFEGITSYYDDLTLVRCGLIDEKRYLGLLAETITGVQRGAGRLKQTLEQSSFEAWTKYYRQDENSPNSIVSYYTKGSLAALALDLLIRRDSKGKQSLDDVMRALWAKWLADGKGLEEGEWEKIAIETTGLKLKPFFDLALRSTGELPLAELLKSQGVELKFEAAQGASDRGGVVDAFAGKPAPLTLGVKTAADAAGVKLLQVLDGGAAQAAGLSGGDVVVAVDKLRAYDLDKQIARFAAGDKIKLHAFRRDELMTFEVAPQAAPEDTCRLKLDAGGGKWIAGRLEHHHHHH”, the protein production entry is listed as “failed”.

Take “MTQQHLFPSTKAKSYKLFCFYLLILTSLLHPATAGAADITQQLHRPVNSSMGRQSRDEADSLLRVAEQQYAAGCADKAIDSGLQALDIYHLIGDLRAKGLTYNLLAKAYIELGRFKEGEDALRRRLAIARDTKDFQSQIFALNNLGTLLLQAGEPKAAGETIQEAYTIADNVKNIDGEGLSLSNLGLVSSRLGDYNKAIKLYETALIFRRRTGDAPGEMNTLNNLGDAYLAAGNYPDTIGTYGAAMRIAKTLGDRSNQLRAIDGLVTAHSAVGRYERAFDLLQQRLTIAQELQNLREELKSFESYAKLYEQLGNYPTARNFYERAIIISQTLEDNKQEVFLRDRLTQMLRSQKSILK”: the protein production entry is “failed”.

Take “MTQTTVPVIFDLDGTLVDPAGGITGGISAALREMDLPVPEQAVLNSMVGPKLSDSLLHLADVPGELVDETIERYRRHYKETGIGQSKLYPGVFDLLEYFAETGRPVAVATQKPQSIARLVLEHHKIADFFVSIRGAADDESLKANTASGKVEIVGAALKDLHSQPAVMVGDRHQDVAGALANGLDCIGVSWGFAPDGELEEAGAVAVVSTALELRSKIEELDAVRAAALSEVQNDGSL”: the protein production result is recorded as “failed”.

For the sequence “MTRACNLYVFKNKYVSFNLLDSPNSNPKLLKISLPFNFMDEFEGLLKAVGSAPWYKLIGMVPKLQGDRVVVEMEIDRSKHLQALGTTHGGAIASVLDSAIGLNVNREVVKMGKTAVTAQLNIHYIRPVTEGKIVGVGMPMHIGSKVTVGYGEVRNEEGELVAAGTATFYIIDRRFRDLEHHHHHH”, the protein production result was “failed”.

For “MTRAQPEPVQVVKQRRDAALRALVSGVPYITYLGIQFDRRGDELTAVLPFDEKLIGNPMLPAIHGGVTAAFLEVASIIELSWSVLWHEMEQGRLDPDQIEARLPRLPKTIDFTVDYLRSGLPRDAYARARVNRSGRRYASVHVEAWQDNRLRPFAQATGHFLMPARNDLEHHHHHH”, the protein production result is on record as “not failed”.

Consider “MTRHNEIIKCAEKYQLHIQPQTISLNESGLDFQVAFGKDKHGVEWVLRLPRRPDVYKRTKPEKQTVDFLQKNVSFEIPKWKVHAKDLIAYPKLTGKPAATIDPEIQNYVWEIEHKPLPENFINTLAETLVDLHNIPEENINVQHINIKTIQEIKNDFQRRMNKVKETYGVSDELWNRWKQWLENDELWPRHATMIHGDLHPGHIMVDNQANVTGLIDWTEATHSDPSMDFIGHHRVFDDEGLEQLITAYGKAGGEIWPRMKEHIIELNAVFPMFIAEFAMESGESAYETMALKELGMKE”, for which the protein production result is “failed”.

On to “MTRLTRFAVAPLHSMTRRLADVASARVAPDLVVTGARVLSTYSERIHANREVWITGGRVAAVKPAGTARKAWSGVALYDAAGAIIAPGLVDPHIHIESSMVTACAYAEAALLNGTTTIFCDSHEIGNVMDVAGVEAMLEDARQAPLSIFLTVPSTVPATSAELETAGGDLTPDKIAGLFDRWPEAVALGEKMDFVPVTMGDERSHAILAAALKRGRPVSGHVYGREFVAAYAASGVTDTHEAIDRDIADDLLDAGVWVFLRGGPPTTPWHSLPQAIRTITELGASHKRTAVCTDDRDADDLLLFGLDWVVREAVKAGMSPEQAWSMGSLHGATRFGMEGDIGGLGGGRRADLVLMDDQLKPQCTWYGGELVVEHGKITPRLDQALSQRYQYPKAAYATVKLPEKVKLTPELPAKACTVNAIKTALPGITLIHEKVAIEPAKDWPTLFARYGLCFVTVVERHGKSAGNVAYGLLKDFGLKRGAVASSVGHDSHNIIVAGTNEPDMQVAIAAIKEHQGAVCVVADGKVRALVPLPIAGLLSDKRVTEVAEEVKVLKKEWAEAGCTIPYMGFNLIPLSVIPEIRITDKGLVLVPQMELAPLFE”, for which the protein production result is on record as “failed”.
